Data on 1 substance can be found in patent publication US20020032310A1.

The target in this assay is KGFR (keratinocyte growth factor receptor, KGFR-type isoform of the FGFR2/BEK gene) (mouse) (UniProt P21803). As to the kind of experiment: cell-based or functional assay.

As for “KGF secreted from NIH 3T3 cells (from UniProt P36363 32-194) (ligand)”, the Transforming Activity turned out to be 14000 ffu/pmol DNA.
